Biological target: T1, FtsZ labelled with Alexa Fluor 647 (E. coli, UniProt P0A9A6 1-383, Alexa Fluor 647 label, 0.9 ± 0.2 mol of fluorophore per mol of protein)
T1 construct: FtsZ, Escherichia coli cell division protein; called wild-type in the discussion; The label was added to the polymerised protein; also called FtsZ-A647
T1 sequence (looked up): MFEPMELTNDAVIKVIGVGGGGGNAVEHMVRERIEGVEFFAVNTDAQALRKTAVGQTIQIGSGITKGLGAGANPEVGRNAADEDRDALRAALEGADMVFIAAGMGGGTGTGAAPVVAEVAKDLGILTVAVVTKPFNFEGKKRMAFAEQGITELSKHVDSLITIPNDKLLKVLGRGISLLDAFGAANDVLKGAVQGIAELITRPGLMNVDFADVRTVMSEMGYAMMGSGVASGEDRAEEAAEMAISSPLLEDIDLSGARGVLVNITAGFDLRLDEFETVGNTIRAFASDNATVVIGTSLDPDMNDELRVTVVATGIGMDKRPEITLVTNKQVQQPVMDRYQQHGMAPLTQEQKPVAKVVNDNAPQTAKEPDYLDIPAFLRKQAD
Test: recruitment to a supported lipid bilayer, fluorescence microscopy; 1 µM purified sZipA-A488 first incubated on the SLB with DGS-NTA lipids, washed; 3 µM purified FtsZ-A647 with 2 mM GTP added in minimal reaction buffer or PUREfrex2.0, with 50 g/L Ficoll70 or cell-free synthesized ZapA; spinning disk microscopy at room temperature
Settings: both partners purified

binding result: binds
B1: soluble ZipA labelled with Alexa Fluor 488 (domain or fragment)
chain: not shown
modifications: Alexa Fluor 488 label, 0.9 ± 0.2 mol of fluorophore per mol of protein
notes: Held on the supported lipid bilayer through the His6-tag and DGS-NTA lipids; also called sZipA-A488; sZipA; not shown: His6, N-terminal, kept

Reference: publication PMC7527988, “Cell-free biogenesis of bacterial division proto-rings that can constrict liposomes” (Communications Biology, 2020)
